Read-outs that look alike come from different tables or passages of the source. Square brackets hold non-standard residues; d marks the D form. Ends that are not written are not given here. pS = N[C@@H](COP(=O)(O)O)C(=O)O
How the values were obtained:
calmodulin (Sigma) [1] = molecular target: T1, calmodulin (Sigma) (UniProt P62157 2-149); experiment: FP, 50 nM fluorescein-labelled peptide titrated with calmodulin, 25 C
CBP KIX LL652-3AA [2] = molecular target: T2, CBP KIX LL652-3AA (UniProt P45481 586-665, limits assumed); experiment: FP with CBP KIX variant
T2 construct: domain: KIX
T2 sequence (P45481 other isoform, or with tags, fused parts or gaps limits assumed): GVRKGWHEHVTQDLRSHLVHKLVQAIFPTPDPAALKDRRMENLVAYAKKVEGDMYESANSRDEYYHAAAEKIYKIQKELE

CBP KIX E655A [3] = molecular target: T3, CBP KIX E655A (UniProt P45481 586-665, limits assumed); experiment: FP with CBP KIX variant
T3 construct: domain: KIX
T3 sequence (P45481 586-665 E655A limits assumed): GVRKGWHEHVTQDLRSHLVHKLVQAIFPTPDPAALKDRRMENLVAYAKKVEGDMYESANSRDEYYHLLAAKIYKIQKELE

CBP KIX K606A [4] = molecular target: T4, CBP KIX K606A (UniProt P45481 586-665, limits assumed); experiment: FP with CBP KIX variant
T4 construct: domain: KIX
T4 sequence (P45481 586-665 K606A limits assumed): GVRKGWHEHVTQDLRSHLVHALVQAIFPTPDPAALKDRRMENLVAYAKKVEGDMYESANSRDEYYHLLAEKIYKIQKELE

CBP KIX Q661A [5] = molecular target: T5, CBP KIX Q661A (UniProt P45481 586-665, limits assumed); experiment: FP with CBP KIX variant
T5 construct: domain: KIX
T5 sequence (P45481 586-665 Q661A limits assumed): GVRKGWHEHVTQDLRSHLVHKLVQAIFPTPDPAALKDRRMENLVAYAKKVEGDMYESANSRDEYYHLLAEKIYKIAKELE

CBP KIX I657A [6] = molecular target: T6, CBP KIX I657A (UniProt P45481 586-665, limits assumed); experiment: FP with CBP KIX variant
T6 construct: domain: KIX; also called 1657A
T6 sequence (P45481 586-665 I657A limits assumed): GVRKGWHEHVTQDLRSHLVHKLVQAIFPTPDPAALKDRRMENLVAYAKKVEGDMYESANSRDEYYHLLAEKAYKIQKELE

CBP KIX K662A [7] = molecular target: T7, CBP KIX K662A (UniProt P45481 586-665, limits assumed); experiment: FP with CBP KIX variant
T7 construct: domain: KIX
T7 sequence (P45481 586-665 K662A limits assumed): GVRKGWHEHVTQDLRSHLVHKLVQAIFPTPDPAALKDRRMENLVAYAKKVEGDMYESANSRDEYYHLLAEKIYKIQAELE

CBP KIX L603A [8] = molecular target: T8, CBP KIX L603A (UniProt P45481 586-665, limits assumed); experiment: FP with CBP KIX variant
T8 construct: domain: KIX
T8 sequence (P45481 586-665 L603A limits assumed): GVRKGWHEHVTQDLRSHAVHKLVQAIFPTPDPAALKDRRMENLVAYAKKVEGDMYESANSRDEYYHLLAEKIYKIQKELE

CBP KIX Y658A [9] = molecular target: T9, CBP KIX Y658A (UniProt P45481 586-665, limits assumed); experiment: FP with CBP KIX variant
T9 construct: domain: KIX
T9 sequence (P45481 586-665 Y658A limits assumed): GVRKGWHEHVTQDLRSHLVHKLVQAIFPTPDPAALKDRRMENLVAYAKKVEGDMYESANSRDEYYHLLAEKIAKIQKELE

CBP KIX L599A [10] = molecular target: T10, CBP KIX L599A (UniProt P45481 586-665, limits assumed); experiment: FP with CBP KIX variant
T10 construct: domain: KIX
T10 sequence (P45481 586-665 L599A limits assumed): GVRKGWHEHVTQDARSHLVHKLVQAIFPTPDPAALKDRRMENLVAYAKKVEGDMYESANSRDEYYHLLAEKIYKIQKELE

CBP KIX I660A [11] = molecular target: T11, CBP KIX I660A (UniProt P45481 586-665, limits assumed); experiment: FP with CBP KIX variant
T11 construct: domain: KIX; also called 1660A
T11 sequence (P45481 586-665 I660A limits assumed): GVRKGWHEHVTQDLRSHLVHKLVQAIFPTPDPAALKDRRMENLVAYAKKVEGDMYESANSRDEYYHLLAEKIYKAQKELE

[12] = molecular target: T12, CBP KIX Y650A (Example 20) (UniProt P45481 586-665, limits assumed); experiment: FP with CBP KIX variant
T12 construct: domain: KIX
T12 sequence (P45481 586-665 Y650A limits assumed): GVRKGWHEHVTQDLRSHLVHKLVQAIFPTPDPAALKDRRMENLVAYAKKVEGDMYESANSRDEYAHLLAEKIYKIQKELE

CBP KIX Y658F [13] = molecular target: T13, CBP KIX Y658F (UniProt P45481 586-665, limits assumed); experiment: FP with CBP KIX variant
T13 construct: domain: KIX
T13 sequence (P45481 586-665 Y658F limits assumed): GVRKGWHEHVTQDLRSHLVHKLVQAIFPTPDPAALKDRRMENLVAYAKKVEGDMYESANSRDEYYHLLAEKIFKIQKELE

HisKIX [14] = molecular target: T14, HisKIX (UniProt P45481 586-672); experiment: FP, fluorescein-labelled peptide titrated with HisKIX, 25 C
T14 construct: range 586-672; the residue numbers fit mouse CBP; also called His-tagged CBP KIX domain; CBP KIX; not shown: amino-terminal hexahistidine tag and linker of pET15b
T14 sequence (P45481 586-672): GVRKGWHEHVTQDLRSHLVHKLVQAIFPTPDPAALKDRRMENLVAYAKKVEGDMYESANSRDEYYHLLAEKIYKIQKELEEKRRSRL

HisKIX [15] = molecular target: T14, HisKIX; experiment: as above; remark: listed apart in the source
[16] = molecular target: carbonic anhydrase II (Sigma); experiment: FP, 50 nM fluorescein-labelled peptide titrated with carbonic anhydrase II, 25 C
Target sequence in this assay (chain, as listed by the source): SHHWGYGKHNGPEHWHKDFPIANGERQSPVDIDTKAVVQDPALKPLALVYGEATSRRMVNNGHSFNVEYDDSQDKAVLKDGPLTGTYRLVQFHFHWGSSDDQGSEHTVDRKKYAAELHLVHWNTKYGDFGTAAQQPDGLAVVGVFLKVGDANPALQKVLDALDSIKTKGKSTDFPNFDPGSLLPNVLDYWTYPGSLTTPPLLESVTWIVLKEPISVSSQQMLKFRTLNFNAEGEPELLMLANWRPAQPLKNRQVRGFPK

calmodulin (Sigma) [17] = molecular target: T1, calmodulin (Sigma); experiment: FP; specificity ratio
HisKIX [18] = molecular target: T14, HisKIX; experiment: FP with HisKIX; end of the range assigned by Table 1
[19] = molecular target: T15, CBP KIX, wild type (Example 20) (UniProt P45481 586-665, limits assumed); experiment: FP, 25 nM fluorescein-labelled ligand titrated with CBP KIX, 25 C
T15 construct: domain: KIX; also called wild type CBP KIX; CBP MX
T15 sequence (P45481 586-665 limits assumed): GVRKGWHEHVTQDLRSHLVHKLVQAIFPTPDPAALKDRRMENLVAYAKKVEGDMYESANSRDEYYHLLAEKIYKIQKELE

CBP KIX LL652-3AA [20] = molecular target: T2, CBP KIX LL652-3AA; experiment: FP, 25 nM fluorescein-labelled ligand titrated with CBP KIX variant, 25 C
CBP KIX E655A [21] = molecular target: T3, CBP KIX E655A; experiment: as above
CBP KIX K606A [22] = molecular target: T4, CBP KIX K606A; experiment: as above
CBP KIX Q661A [23] = molecular target: T5, CBP KIX Q661A; experiment: as above
CBP KIX I657A [24] = molecular target: T6, CBP KIX I657A; experiment: as above
CBP KIX K662A [25] = molecular target: T7, CBP KIX K662A; experiment: as above
CBP KIX L603A [26] = molecular target: T8, CBP KIX L603A; experiment: as above
CBP KIX Y658A [27] = molecular target: T9, CBP KIX Y658A; experiment: as above
CBP KIX L599A [28] = molecular target: T10, CBP KIX L599A; experiment: as above
CBP KIX I660A [29] = molecular target: T11, CBP KIX I660A; experiment: as above
[30] = molecular target: T12, CBP KIX Y650A (Example 20); experiment: as above
CBP KIX Y658F [31] = molecular target: T13, CBP KIX Y658F; experiment: as above
calmodulin (Sigma) [32] = molecular target: T1, calmodulin (Sigma); experiment: fluorescence emission titration, fluorescein-labelled peptide + calmodulin (HEPES, KCl, CaCl2 buffer)
[33] = molecular target: carbonic anhydrase II (Sigma); experiment: fluorescence emission titration, fluorescein-labelled peptide + carbonic anhydrase II, PBS
Target sequence in this assay (chain, as listed by the source): as the sequence (chain, as listed by the source) above

[34] = molecular target: T16, Human recombinant Bcl-2 (1-205), soluble GST-fusion (Santa Cruz Biotechnology) (human, UniProt P10415 1-205); experiment: fluorescence emission titration, fluorescein-labelled peptide + serially diluted Bcl-2, 4 C, PBS
T16 construct: Bought; also called GST-Bcl-2; not shown: glutathione S-transferase (GST) fusion partner
T16 sequence (P10415 1-205): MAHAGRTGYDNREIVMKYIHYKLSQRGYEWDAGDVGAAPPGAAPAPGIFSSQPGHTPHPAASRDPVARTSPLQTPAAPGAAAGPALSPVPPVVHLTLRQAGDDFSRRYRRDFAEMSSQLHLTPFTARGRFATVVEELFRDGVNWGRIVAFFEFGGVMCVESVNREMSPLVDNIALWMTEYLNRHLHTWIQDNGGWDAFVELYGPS

[35] = molecular target: T16, Human recombinant Bcl-2 (1-205), …; experiment: fluorescence emission titration with Bcl-2
HisKIX [36] = molecular target: T14, HisKIX; experiment: FP with HisKIX
calmodulin (Sigma) [37] = molecular target: T1, calmodulin (Sigma); experiment: FP with calmodulin
[38] = molecular target: carbonic anhydrase II (Sigma); experiment: FP, 50 nM fluorescein-labelled peptide titrated with carbonic anhydrase II, 25 C; remark: listed apart in the source
Target sequence in this assay (P00921 2-260): as the sequence (chain, as listed by the source) above

calmodulin (Sigma) [39] = molecular target: T1, calmodulin (Sigma); experiment: FP with calmodulin (text value; Table 2 prints 52 ± 12)
[40] = molecular target: T15, CBP KIX, wild type (Example 20); experiment: FP, fluorescein-labelled PPKID4^P titrated with CBP KIX
CBP KIX Y658A [41] = molecular target: T9, CBP KIX Y658A; experiment: FP with CBP KIX variant (text value; Table 3 prints 3.9 ± 0.3)

Binder | Kd (calmodulin (Sigma) [1]) | ΔΔG relative to wild type CBP KIX (CBP KIX LL652-3AA [2]) | ΔΔG relative to wild type CBP KIX (CBP KIX E655A [3]) | ΔΔG relative to wild type CBP KIX (CBP KIX K606A [4]) | ΔΔG relative to wild type CBP KIX (CBP KIX Q661A [5]) | ΔΔG relative to wild type CBP KIX (CBP KIX I657A [6]) | ΔΔG relative to wild type CBP KIX (CBP KIX K662A [7]) | Kd (HisKIX [14]) | Kd [19] | Kd (CBP KIX LL652-3AA [20]) | Kd (CBP KIX E655A [21]) | Kd (CBP KIX K606A [22]) | Kd (CBP KIX Q661A [23]) | Kd (CBP KIX I657A [24]) | Kd (CBP KIX K662A [25]) | Kd (CBP KIX L603A [26]) | Kd (CBP KIX Y658A [27]) | Kd (CBP KIX I660A [29]) | Kd [30] | Kd (CBP KIX Y658F [31]) | other results
GISWPTFEGDDAPVRRLSFFYILLDLYLDAPGVC(acetamidofluorescein)-NH2 (designed binder, also called PPKID6 (unphosphorylated)) [PPKID6^U] | > 168000 nM | -0.8 kcal/mol | 0.68 kcal/mol | 0.47 kcal/mol | -0.16 kcal/mol | 1.1 kcal/mol | 0.71 kcal/mol | 1500 nM | 540 nM | 140 nM | 1700 nM | 1200 nM | 410 nM | 3600 nM | 1800 nM | 2500 nM | 1700 nM | 6100 nM | 1300 nM | 2800 nM | ΔΔG relative to wild type CBP KIX (CBP KIX L603A [8]): 0.91 kcal/mol; ΔΔG relative to wild type CBP KIX (CBP KIX Y658A [9]): 0.68 kcal/mol; ΔΔG relative to wild type CBP KIX (CBP KIX L599A [10]): 1.1 kcal/mol; ΔΔG relative to wild type CBP KIX (CBP KIX I660A [11]): 1.4 kcal/mol; ΔΔG relative to wild type CBP KIX [12]: 0.52 kcal/mol; ΔΔG relative to wild type CBP KIX (CBP KIX Y658F [13]): 0.97 kcal/mol; Kd (HisKIX [15]): 1500 nM; Kd [16]: 79000 nM; Krel = Kd (CalM)/Kd (HisKIX) (calmodulin (Sigma) [17]): > 112; fold enhancement in affinity over KID-AB^U (HisKIX [18]): ≥ 77 fold; fold enhancement in affinity over KID-B^U (HisKIX [18]): ≥ 198 fold; fold enhancement in affinity over peptide C^U (HisKIX [18]): 7 to 14 fold; Kd (CBP KIX L599A [28]): 3300 nM
GPSQPTYPGDDAPVEDLIRFVGRLLAYFGDTINRYC(5‑iodoacetamidofluorescein)-NH2 (designed binder, also called p4121-flu (labelled form, by order and mass)) [p4099] |  |  |  |  |  |  |  |  |  |  |  |  |  |  |  |  |  |  |  |  | Kd (calmodulin (Sigma) [32]): 25000 nM; Kd [33]: 8600 nM; Kd [34]: 352 nM; fold better binding than p4101 [35]: ~2 fold
TDSQKRREILSRRP[pS]YRKILNDLSSDAPGVC-NH2 (also: C-terminal Cys acetamidofluorescein-labelled in direct assays, unlabelled as competitor, CREB KID residues 119-148 (A and B helices) plus a C-terminal Cys; also called KID-AB (phosphorylated); CREB KID^P) [KID-AB^P] |  | 1.2 kcal/mol | 0.32 kcal/mol | 1 kcal/mol | 0.48 kcal/mol | 0.9 kcal/mol | 1.5 kcal/mol | 562 nM | 410 nM | 2900 nM | 710 nM | 2300 nM | 930 nM | 1900 nM | 4800 nM | 3400 nM | 142000 nM | 270 nM | 9400 nM | 26000 nM | ΔΔG relative to wild type CBP KIX (CBP KIX L603A [8]): 1.2 kcal/mol; ΔΔG relative to wild type CBP KIX (CBP KIX Y658A [9]): 3.5 kcal/mol; ΔΔG relative to wild type CBP KIX (CBP KIX L599A [10]): 0.58 kcal/mol; ΔΔG relative to wild type CBP KIX (CBP KIX I660A [11]): -0.26 kcal/mol; ΔΔG relative to wild type CBP KIX [12]: 1.8 kcal/mol; ΔΔG relative to wild type CBP KIX (CBP KIX Y658F [13]): 2.5 kcal/mol; ΔΔG upon phosphorylation (HisKIX [36]): > 3.2 kcal/mol; Kd (CBP KIX L599A [28]): 1100 nM
RRL[pS]FFYILLDLYLDAPGVC(acetamidofluorescein)-NH2 (Chimeric alpha-helical portion of the PPKID peptides (residues 15-33); also called Peptide C (phosphorylated)) [peptide C^P] | 178000 nM |  |  |  |  |  |  |  |  |  |  |  |  |  |  |  |  |  |  |  | fold lower affinity than PPKID4^P (calmodulin (Sigma) [37]): 4 fold; Kd [38]: 97000 nM; Krel = Kd (CalM)/Kd (HisKIX) (calmodulin (Sigma) [17]): 74; fold increase in affinity over KID-B^P (HisKIX [36]): > 20 fold; fold lower affinity than PPKID4^P (HisKIX [36]): 5 fold; ΔΔG relative to KID-B^P (HisKIX [36]): -1.8 kcal/mol
GQVGRQLAIIGDDINRYC-NH2 (not fully specified (residue 18), Labelled form used for Kd determinations carries an additional carboxy-terminal YC; The printed mass (1724) looks too small for residues 72-94; also called Bak BH3 peptide; Bak (72-94)) [Bak peptide] |  |  |  |  |  |  |  |  |  |  |  |  |  |  |  |  |  |  |  |  | Kd (calmodulin (Sigma) [32]): 25000 nM; Kd [33]: 22000 nM; Kd [34]: 363 nM
GPSQPTYPGDDAPVRRL[pS]FFYILLDLYLDAPGVC(acetamidofluorescein)-NH2 (designed binder, also called PPKID4 (phosphorylated)) [PPKID4^P] | 52000 nM |  |  |  |  |  |  | 515 nM | 610 nM | 2900 nM | 540 nM | 3100 nM | 1100 nM | 2700 nM | 3900 nM | 3400 nM | 3900 nM | 1100 nM | 3000 nM | 4100 nM | Kd (HisKIX [15]): 515 nM; Kd [16]: 106000 nM; Kd (calmodulin (Sigma) [39]): 51000 nM; Kd [40]: 610 nM; Kd (CBP KIX Y658A [41]): 4100 nM

From patent publication US20110028686A1 (published 2011)
